The source of these data is publication PMC9426568, “Glucose-1,6-Bisphosphate, a Key Metabolic Regulator, Is Synthesized by a Distinct Family of α-Phosphohexomutases Widely Distributed in Prokaryotes” (mBio, 2022).

For data set [1], the target named is T1, Sll0726 (Synechocystis sp. PCC 6803, UniProt P74643).
T1 construct: gene pgm; recombinant, Strep-tagged, expressed in E. coli Rosetta-gami (DE3), purified
T1 sequence (P74643 1-567): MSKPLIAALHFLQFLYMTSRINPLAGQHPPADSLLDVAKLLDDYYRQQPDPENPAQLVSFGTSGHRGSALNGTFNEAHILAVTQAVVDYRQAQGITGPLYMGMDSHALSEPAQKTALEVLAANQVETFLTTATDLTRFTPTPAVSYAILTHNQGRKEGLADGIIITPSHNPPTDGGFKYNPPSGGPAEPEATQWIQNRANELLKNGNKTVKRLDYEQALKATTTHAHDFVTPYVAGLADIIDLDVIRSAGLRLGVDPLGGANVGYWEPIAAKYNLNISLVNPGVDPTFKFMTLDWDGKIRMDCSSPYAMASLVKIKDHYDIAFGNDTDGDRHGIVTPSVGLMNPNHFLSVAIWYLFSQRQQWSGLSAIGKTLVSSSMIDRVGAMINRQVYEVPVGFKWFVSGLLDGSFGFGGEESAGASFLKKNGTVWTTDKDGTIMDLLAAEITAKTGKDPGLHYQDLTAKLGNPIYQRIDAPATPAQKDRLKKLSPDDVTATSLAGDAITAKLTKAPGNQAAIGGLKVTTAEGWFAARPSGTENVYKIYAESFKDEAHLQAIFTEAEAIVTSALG
Kind of data set: G6PDH-coupled PGM assay, NADPH at […] nm. As to conditions: inhibitor, 100 μM, varied Glc-1P, without Glc-1,6-BP; 10 mM MgCl2, pH 7.5, 30°C. The format is biochemical.

Substrate in data set [2]: O=P(O)(O)O[C@H]1O[C@H](CO)[C@@H](O)[C@H](O)[C@H]1O
Kind of data set: purified protein. In kind it is biochemical, Synechocystis sp. PCC 6803. As to conditions: with 60 μM Glc-1,6-BP (activator), 10 mM MgCl2, 150 mM KCl, HEPES-KOH pH 7.5, 30°C.

Substrate in data set [3]: O=P(O)(O)OC[C@H]1O[C@H](OP(=O)(O)O)[C@H](O)[C@@H](O)[C@@H]1O
Kind of data set: purified protein. The format is biochemical, Synechocystis sp. PCC 6803. As to conditions: co-substrate 0.5 mM Frc-6P, 10 mM MgCl2, 150 mM KCl, HEPES-KOH pH 7.5, 30°C, lowest measurable concentration already saturating.

On to `O=P(O)(O)OC[C@H]1OC(O)(COP(=O)(O)O)[C@@H](O)[C@@H]1O` (stereo partly drawn) [Frc-1,6-BP], for which the “G6PDH-coupled PGM assay, NADPH at 340 nm” value in data set [1] is “effect of different concentrations of Frc-1,6-BP on Sll0726 and observed major inhibition”.

B1: Sll0726 (Synechocystis sp. PCC 6803 substr. Kazusa) (protein)
chain: MSKPLIAALHFLQFLYMTSRINPLAGQHPPADSLLDVAKLLDDYYRQQPDPENPAQLVSFGTSGHRGSALNGTFNEAHILAVTQAVVDYRQAQGITGPLYMGMDSHALSEPAQKTALEVLAANQVETFLTTATDLTRFTPTPAVSYAILTHNQGRKEGLADGIIITPSHNPPTDGGFKYNPPSGGPAEPEATQWIQNRANELLKNGNKTVKRLDYEQALKATTTHAHDFVTPYVAGLADIIDLDVIRSAGLRLGVDPLGGANVGYWEPIAAKYNLNISLVNPGVDPTFKFMTLDWDGKIRMDCSSPYAMASLVKIKDHYDIAFGNDTDGDRHGIVTPSVGLMNPNHFLSVAIWYLFSQRQQWSGLSAIGKTLVSSSMIDRVGAMINRQVYEVPVGFKWFVSGLLDGSFGFGGEESAGASFLKKNGTVWTTDKDGTIMDLLAAEITAKTGKDPGLHYQDLTAKLGNPIYQRIDAPATPAQKDRLKKLSPDDVTATSLAGDAITAKLTKAPGNQAAIGGLKVTTAEGWFAARPSGTENVYKIYAESFKDEAHLQAIFTEAEAIVTSALG
notes: recombinant, Strep-tagged, expressed in E. coli Rosetta-gami (DE3), purified
As a reminder, the Km is the concentration of substrate that gives half-maximal velocity. One may read the kcat as the number of substrate molecules converted per active site and unit of time at saturation. The term kcat/Km denotes the second-order rate constant that governs catalysis at low substrate concentration. B1: in data set [2], the Km is 190 ± 40 µM, the kcat came out at 415 ± 30.6 s⁻¹ and the kcat/Km stood at 3.04e+06 M⁻¹ s⁻¹.

B2: Slr1334 (Synechocystis sp. PCC 6803 substr. Kazusa) (protein)
chain: MVYTPAPIKFGTDGWRGVIAAEFTFERVVLVAAAAAQVLAAEFGSSGREHRLIVGYDRRFMAEQFALLVAQTVQELGFEVWLSESYAPTPAFSWAAHHENALGALVLTASHNPANYLGLKVKGAFGGSVGSDVTEKIEAQLQNSLPQPQAGGSLQYFDPWPSYCQGLQAKVNVQPIREAVQQGKLRVFADVMHGAAASGLERLLGCPIDEINGDRDPLFGGASPEPLPKYVPKLLAALQTAAKAGGPELRVGLIFDGDADRIAAVDGQGNFLSSQGLIPILIYHLATQKGLQGEIVKTVSGSDLIPKLAELYGIPLTETAIGYKYIADRMLTSPVLIGGEESGGIGYGGHIPERDALLSALYVLETVVQSQQDISEQYGRLQEKVCFVSEYDRIDLPLASMDVRTALVQTLNENPLTAIAGEQVTDLLTTDGYKFRMAGGGWLLIRFSGTEPLLRLYCEAPTSSRVQTVLHWAKDWANGVTPAKPAQSSH
notes: recombinant, expressed in E. coli Rosetta-gami (DE3), purified
With B2, in data set [3], the kcat was determined as 1.2 ± 0.03 s⁻¹ and the kcat/Km worked out at 600000 M⁻¹ s⁻¹. Also, in data set [2], the Km worked out at 90 ± 20 µM, the kcat stood at 14.4 ± 0.7 s⁻¹ and the kcat/Km turned out to be 158000 M⁻¹ s⁻¹.
